Experimental findings from IntAct's records for PubMed 22842346 are described below.

The chains are these.
B1: High mobility group protein B1 (Mus musculus), P63158 (parent)
chain: MGKGDPKKPRGKMSSYAFFVQTCREEHKKKHPDASVNFSEFSKKCSERWKTMSAKEKGKFEDMAKADKARYEREMKTYIPPKGETKKKFKDPNAPKRPPSAFFLFCSEYRPKIKGEHPGLSIGDVAKKLGEMWNNTAADDKQPYEKKAAKLKEKYEKDIAAYRAKGKPDAAKKGVVKAEKSKKKKEEEDDEEDEEDEEEEEEEEDEDEEEDDDDE

This test covers variants of B1. The settings on record: with havr2_mouse Havcr2, Q8VIM0.
havr2_mouse Havcr2, Q8VIM0, sequence (Q8VIM0 whole entry): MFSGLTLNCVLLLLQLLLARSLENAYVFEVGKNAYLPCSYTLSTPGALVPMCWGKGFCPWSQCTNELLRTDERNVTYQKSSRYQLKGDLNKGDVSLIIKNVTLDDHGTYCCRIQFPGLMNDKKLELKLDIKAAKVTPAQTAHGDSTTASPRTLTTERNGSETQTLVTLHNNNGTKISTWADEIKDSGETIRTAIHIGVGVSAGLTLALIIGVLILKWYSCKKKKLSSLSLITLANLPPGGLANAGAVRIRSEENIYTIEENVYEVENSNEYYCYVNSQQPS
For the variant D62A, the “effect of a mutation on the interaction” value was “decreasing interaction”.
